{"source": "patent US20190284603A1", "key": {"[1]": {"biological_target": "Recombinant unmodified nucleosomes", "test": "single-molecule TIRF time-lapse imaging, summed binding events"}, "[2]": {"biological_target": "Mono-nucleosomes from mouse embryonic stem cells (ESCs) (mouse) (UniProt P68433)", "test": "single-molecule TIRF time-lapse imaging, images every 15 minutes"}}, "data": [{"substance": "Acetyl-Histone H3 (Lys9) (C5B11) Rabbit mAb (Alexa Fluor 647 Conjugate) #4484 (antibody)", "values": [{"measurement": "percent of nucleosomes scored (bound by antibody)", "setting": "[1]", "value": 0.1, "unit": "%"}]}, {"substance": "Tri-Methyl-Histone H3 (Lys4) (C42D8) Rabbit mAb (Alexa Fluor 555 Conjugate) #11960 (antibody)", "values": [{"measurement": "time to equilibrium of binding and dissociation", "setting": "[2]", "value": 75, "unit": "min"}]}, {"substance": "Tri-Methyl-Histone H3 (Lys27) (C36B11) Rabbit mAb (Alexa Fluor 647 Conjugate) #12158 (antibody)", "values": [{"measurement": "time to equilibrium of binding and dissociation", "setting": "[2]", "value": 45, "unit": "min"}]}]}
